# Experimental data: PMC12218379 (Scientific Reports, 2025)
# B1: SsRidA (SSA_0809), reactive intermediate deaminase A homolog from Streptococcus sanguinis (enzyme, UniProt A3CM35 1-126, looked up)
# chain: MAKTIHTDKAPAAIGPYVQGKIVGNLLFASGQIPLSPETGEIIGTTIEEQTQQVLKNVSAILEAAGTDFDHVVKATCFLSDINDFVAFNEVYKTAFTEAFPARSAVEVARLPKDVKIEIEVIAEIL
# Target: the molecule itself
# Assay: SEC-MALS
protein,measurement,value
B1,stoichiometry N,3
